Measurements from patent EP4806921A1 (Daan Biotherapeutics, Inc., dated 2026).

Target: T1, CEACAM5 protein (Acrobiosystems) (UniProt P06731 35-685)
T1 construct: also called CEACAM5 full-length protein
T1 sequence (looked up): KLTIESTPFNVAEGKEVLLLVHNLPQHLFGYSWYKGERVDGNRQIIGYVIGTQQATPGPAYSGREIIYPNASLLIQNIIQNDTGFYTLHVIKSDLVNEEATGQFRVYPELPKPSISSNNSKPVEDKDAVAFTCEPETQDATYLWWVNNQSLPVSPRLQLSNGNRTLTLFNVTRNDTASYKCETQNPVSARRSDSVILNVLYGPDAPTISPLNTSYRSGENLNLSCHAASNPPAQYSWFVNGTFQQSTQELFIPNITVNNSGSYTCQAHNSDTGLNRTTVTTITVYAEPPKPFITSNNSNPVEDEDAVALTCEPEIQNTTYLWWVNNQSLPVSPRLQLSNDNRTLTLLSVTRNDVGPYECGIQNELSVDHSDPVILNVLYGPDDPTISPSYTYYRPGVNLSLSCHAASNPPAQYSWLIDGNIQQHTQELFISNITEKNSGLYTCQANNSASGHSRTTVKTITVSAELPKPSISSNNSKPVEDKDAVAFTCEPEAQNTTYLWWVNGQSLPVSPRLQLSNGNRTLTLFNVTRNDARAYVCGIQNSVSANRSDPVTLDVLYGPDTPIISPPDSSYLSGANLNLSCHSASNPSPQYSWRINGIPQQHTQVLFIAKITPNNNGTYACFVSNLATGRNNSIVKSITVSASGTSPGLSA
Test: ELISA on coated CEACAM5 protein (Acrobiosystems), antibody 200 nM to 0.0004 nM

B1: humanized 94E12E2-04 antibody (antibody, V domains shown)
VH: EVQLVESGGGLVQPGGSLRLSCAASGFNIKDNYMHWVRQAPGKGLEWIGWIDPENGDTEYDPKFQGRATMSADTSKNTAYLQMNSLRAEDTAVYYCNIITMATPYPMDYWGQGTLVTVSS
VL: DIQLTQSPSSLSASVGDRVTITCSASTSVIYMHWFQQKPGKAPKLWIYSTSNLASGVPSRFSGSGSGTDYTLTISSLQPEDFATYYCQQRSSYPLTFGQGTKVEIKR
B1: binds.

B2: humanized 94E12E2-06 antibody (antibody, V domains shown)
VH: QVQLVQSGAEVKKPGASVKVSCKASGFNIKDNYMHWVRQAPGQGLEWIGWIDPENGDTEYDPKFQGRATMTADTSISTAYMELSRLRSDDTAVYYCNIITMATPYPMDYWGQGTLVTVSS
VL: EIVLTQSPDFQSVTPKEKVTITCSASTSVIYMHWFQQKPDQSPKLWIYSTSNLASGVPSRFSGSGSGTDYTLTINSLEAEDAATYYCQQRSSYPLTFGQGTKLEIKR
B2: binds.
